Assay results: PMC3498381, “Isolated Toll-like Receptor Transmembrane Domains Are Capable of Oligomerization” (PLoS ONE, 2012)
No end group written: not given here.

Columns and labels:
[1] = Sedimentation equilibrium analytical ultracentrifugation (SE-AUC); assay type: physicochemical; conditions: for Oligomeric state (equilibrium model) / Average molecular weight obtained from the fit: SE-AUC; for Oligomeric state (equilibrium model): density matched 10 mM C14-betaine micelles, 100 mM HEPES pH 7.4, 25% D2O, 25 °C; for Average molecular weight obtained from the fit: peptide alone, global fit, single species model, 495 nm (FITC-TLR2) or 400 nm (coumarin-TLR6)
Protocol: (§1) Supplementary file pone.0048875.s003.tif: Figure S3 TLR2 Homotypic Sedimentation Equilibrium AUC. Sedimentation equilibrium profile at 495 nm of FITC-labeled TLR2 in density matched C14-betaine micelles (10 mM) in HEPES buffer (100 mM, pH 7.4). The partial specific volume and the solution density were fixed at 0.78730 mL/g and 1.031 g/mL, respectively. The data was analyzed using a global fitting routine. […] (TIF) Click here for additional data file.
as §1, with “pone.0048875.s004.tif:” for “pone.0048875.s003.tif:”, “S4 TLR6” for “S3 TLR2”, “400” for “495”, “coumarin-labeled TLR6” for “FITC-labeled TLR2”, “0.78705” for “0.78730”
as §1, with “pone.0048875.s005.tif:” for “pone.0048875.s003.tif:”, “S5 TLR2-TLR6 Heterotypic” for “S3 TLR2 Homotypic”, “7.4) in the presence of 2 equiv. of coumarin-labeled TLR6 peptide.” for “7.4).”
Equilibrium sedimentation was used primarily to determine the association state of TLR2, TLR6, and TLR2-TLR6. The experiments were performed in a Beckman XL-I analytical ultracentrifuge (Beckman Coulter) using six-channel carbon-epoxy composite centerpieces at 25 °C. Peptides were co-dissolved in trifluoroethanol (TFE) and C14-betaine. The organic solvent was removed using dry nitrogen gas and the resulting thin film of peptide/detergent mixture was dried overnight. The sample was then dissolved in buffer previously determined to match the density of the detergent component (100 mM HEPES buffer (pH= 7.4) buffer containing 25% D2O). The final concentration of C14-betaine is 10 mM in all of the samples. Peptide concentrations were determined by UV-Vis on the Beckman Coulter XL-I and dilutions were carried out to get concentrations in the desired absorbance ranges of the instrument (0.3-1) using the following extinction coefficients: 39,300 M^-1cm^-1 at 400 nm for coumarin labeled peptides and 69,000 M^-1cm^-1 at 495 nm for FITC labeled peptides. Data at different measurement speeds (30, 35 krpm) and different peptide:detergent ratios were analyzed by global curve-fitting of radial concentration gradients (measured using optical absorption) to the sedimentation equilibrium equation. Absorbance at both 400 nm and 495 nm was measured. Peptide partial specific volumes were calculated using previously described methods and residue molecular weights corrected for the 25% D2O exchange expected for the density-matched buffer. The solvent density (1.031 g/ml) was calculated using the program Sednterp. These coefficients were multiplied by the molar detergant ratio concentration units. […]
where E = baseline (zero concentration) absorbance, co is the peptide/detergent ratio of the peptide at ro, ε is the molar extinction coefficient, l is the optical path length, ω =2π*RPM, R= 8.3144 ×10^7 erg K^-1mol^-1 , T is temperature in K, M is the buoyant molecular weight of the peptide. […]

[2] = target: T1, 7-hydroxycoumarin labeled TLR1 TMD peptide (Homo sapiens, UniProt Q15399); assay: FRET titration, TLR2-TLR1; assay type: binding; conditions: nM of acceptor labeled peptide; donor coumarin-TLR1 20 nM, fluorescein-TLR2 0-1500 nM, 1 mM C14-betaine, 100 mM HEPES pH 7.4; Hill equation; read-out: Dissociation constant, TLR2-TLR1 interaction
T1 construct: we synthesized peptides for the TLR1, TLR2, and TLR6 TMDs; made in house; host or cells: chemical solid-phase synthesis on Rink Amide resin (C-terminal amide)
T1 sequence (Q15399 581-601 limits assumed): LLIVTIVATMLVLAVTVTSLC
Protocol: (§2) Using the same TLR1, TLR2, and TLR6 peptides, as described above, we were able to monitor the heterotypic interactions between TLR2-TLR1 and TLR2-TLR6 using a previously reported Förster resonance energy transfer (FRET) assay. […] The dissociation constant for the TLR2-TLR1 interaction was 230.8±20.0 nM of acceptor labeled peptide and for TLR2-TLR6 it was 286.5±14.8 nM of acceptor labeled peptide (Fig. 6C). […] SE-AUC was also used to investigate the oligomeric state of the TLR2-TLR6 heterotypic interaction.
(§3) Figure 6 TLR2-TLR1 and TLR2-TLR6 Heterotypic Interactions Measured by Förster Resonance Energy Transfer. Synthetic TMD peptides were co-incubated in micelles with the FRET donor concentration fixed to be 20 nM and the FRET acceptor concentration varied from 0–1500 nM. The donor was excited at 415 nm and emission was monitored from 440–600 nm. Only donor emission is shown as the excitation-emission separation led to a high background signal seen in the acceptor channel. (A) TLR2-TLR1 donor channel. (B) TLR2-TLR6 donor channel. (C) FRET efficiency based on decrease in donor signal at increasing acceptor concentrations.
(§4) FRET was used to directly probe the heterotypic association of the synthetic peptides. FRET experiments were performed on a Horiba Fluorolog-3 using a 0.3 cm path length cuvette. […]

[3] = target: T2, 7-hydroxycoumarin labeled TLR6 TMD peptide (Homo sapiens, UniProt Q9Y2C9); assay: FRET titration, TLR2-TLR6; assay type: binding; conditions: nM of acceptor labeled peptide; donor coumarin-TLR6 20 nM, fluorescein-TLR2 0-1500 nM, 1 mM C14-betaine, 100 mM HEPES pH 7.4; Hill equation; read-out: Dissociation constant, TLR2-TLR6 interaction
T2 construct: we synthesized peptides for the TLR1, TLR2, and TLR6 TMDs; made in house; host or cells: chemical solid-phase synthesis on Rink Amide resin (C-terminal amide)
Protocol: as §2, §3, §4

[4] = 10 mM C14-betaine, 100 mM HEPES pH 7.4

| Substance | Oligomeric state (equilibrium model) [1] | Average molecular weight obtained from the fit [1, 4] [Da] | Kd [2] [nM] | Kd [3] [nM] | Average molecular weight obtained from the fit, in the presence of TLR6 ([1]; SE-AUC at 495 nm, FITC-labeled TLR2 with 2 equiv. of coumarin-labeled TLR6 peptide, 10 mM C14-betaine, 100 mM HEPES pH 7.4) [Da] |
| --- | --- | --- | --- | --- | --- |
| TLR6*: TLR6 TMD chimera with nonfunctional ToxR* domain (negative phenotype) (GNRASITLLIVTIGATMLVLAVTVTSLCIYLGSLIN; also: fused to non-functional ToxR* (S87H) and maltose binding protein, ends not given here) | monomer-dimer equilibrium | 7680±866 |  |  |  |
| TLR2*: TLR2 TMD chimera with nonfunctional ToxR* domain (negative phenotype) (GNRASALVSGMCCALFLLILLTGVLCGSLIN; cysteine pairing not given here; also: fused to non-functional ToxR* (S87H) and maltose binding protein, ends not given here) | monomer-dimer-tetramer equilibrium | 14135±370 | 231 ± 20 | 286 ± 14.8 | 12330±506 |
